Tested on: O=C(O)C(=O)/C=C/c1ccccc1O
Experiment: purified protein
Conditions: 50 mM Na2HPO4 pH 7.2, 22 °C

Row | Substance | Km [µM] | kcat [s⁻¹] | kcat/Km [M⁻¹ s⁻¹]
1 | NahE (His-tag NahE) (Pseudomonas putida; N157A) | 8 ± 1 | 0.13 | 16000
2 | NahE (His-tag NahE) (Pseudomonas putida; N157L) | 60 ± 10 | 0.6 | 10000
3 | NahE (His-tag NahE) (Pseudomonas putida; T65S) | 1.7 ± 0.3 | 0.0085 | 5000
4 | NahE (His-tag NahE) (Pseudomonas putida; T65V) | 21 ± 8 | 0.004 | 190
5 | NahE (His-tag NahE) (Pseudomonas putida; W128F) | 8 ± 2 | 8 | 1e+06
6 | NahE (His-tag NahE) (Pseudomonas putida; W128Y) | 7 ± 1 | 5 | 700000
7 | NahE (His-tag NahE) (Pseudomonas putida; Y155F) | 4 ± 1 | 0.004 | 1000

— article PMC9762252
